FireProtDB (doi:10.1016/j.ijbiomac.2020.05.059)
Values joined by “and” are separate entries in the source; they are usually repeats but may differ in a detail not shown here. Equal values may be shown once.

Conditions: Equus caballus, pH 6, 25 °C, transition: 2
[1] = GdnHCl, CD, sodium cacodylate, NaCl, reversible: yes, structure 1HRC
[2] = GdnHCl, sodium cacodylate 100 mM, NaCl 100 mM, reversible: no, structure 1HRC
[3] = Urea, CD, sodium cacodylate, NaCl, reversible: yes, structure 1HRC
[4] = Urea, sodium cacodylate 100 mM, NaCl 100 mM, reversible: no, structure 1HRC
[5] = GdnHCl, CD, sodium cacodylate, NaCl, reversible: yes

Cytochrome c wild type, P00004, sequence (P00004 whole entry): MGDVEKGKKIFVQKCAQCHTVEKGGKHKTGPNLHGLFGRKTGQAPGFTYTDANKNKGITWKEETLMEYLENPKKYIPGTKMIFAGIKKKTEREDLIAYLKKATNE
Cytochrome c L95I, P00004, sequence (P00004 whole entry L95I): as the sequence (P00004 whole entry) above, with L95I counted along it
Cytochrome c L95V, P00004, sequence (P00004 whole entry L95V): as the sequence (P00004 whole entry) above, with L95V counted along it

| Substance | ddG of mutation (higher = less stable) [1] | denaturant m value [1] | denaturant midpoint (higher = more stable) [1] | unfolding free energy [1] | ddG of mutation (higher = less stable) [2] | denaturant m value [2] | denaturant midpoint (higher = more stable) [2] | unfolding free energy [2] | ddG of mutation (higher = less stable) [3] | denaturant m value [3] | denaturant midpoint (higher = more stable) [3] | unfolding free energy [3] | ddG of mutation (higher = less stable) [4] | denaturant m value [4] | denaturant midpoint (higher = more stable) [4] | unfolding free energy [4] | denaturant m value [5] | denaturant midpoint (higher = more stable) [5] | unfolding free energy [5] | unfolding free energy (Urea, sodium cacodylate 100 mM, NaCl 100 mM, reversible: yes) |
| --- | --- | --- | --- | --- | --- | --- | --- | --- | --- | --- | --- | --- | --- | --- | --- | --- | --- | --- | --- | --- |
| Cytochrome c L95I, P00004 | 1.31 kcal/mol and 1.51 kcal/mol | 3.59 kcal/mol/M and 3.64 kcal/mol/M | 2.14 M and 2.15 M | 7.69 kcal/mol and 7.95 kcal/mol | 1.54 kcal/mol and 1.1 kcal/mol and 1.51 kcal/mol | 3.65 kcal/mol/M and 3.49 kcal/mol/M and 3.64 kcal/mol/M | 2.18 M and 2.06 M and 2.15 M | 7.96 kcal/mol and 7.17 kcal/mol and 7.95 kcal/mol | 1.73 kcal/mol and 1.68 kcal/mol | 1.48 kcal/mol/M and 1.47 kcal/mol/M | 5.87 M and 5.89 M | 8.68 kcal/mol and 8.7 kcal/mol | 1.68 kcal/mol and 1.83 kcal/mol | 1.49 kcal/mol/M and 1.47 kcal/mol/M | 5.9 M and 5.89 M | 8.78 kcal/mol and 8.65 kcal/mol and 8.7 kcal/mol |  |  |  |  |
| Cytochrome c L95V, P00004 | 1.66 kcal/mol and 1.82 kcal/mol | 3.54 kcal/mol/M and 3.61 kcal/mol/M | 2.07 M and 2.11 M | 7.34 kcal/mol and 7.64 kcal/mol |  |  | 2.1 M and 2.01 M and 2.11 M |  | 2.36 kcal/mol | 1.47 kcal/mol/M | 5.46 M | 8.02 kcal/mol |  | 1.48 kcal/mol/M and 1.47 kcal/mol/M | 5.46 M and 5.43 M |  |  |  |  |  |
| Cytochrome c wild type, P00004 |  |  |  |  |  |  |  |  |  |  |  |  |  |  |  |  | 3.64 kcal/mol/M and 3.73 kcal/mol/M | 2.47 M and 2.53 M | 9 kcal/mol and 9.46 kcal/mol | 10.5 kcal/mol and 10.3 kcal/mol and 10.4 kcal/mol |
